Assay results: patent US20060019342A1 (AstraZeneca / MedImmune, published 2006)

Tests used:
[1] = target: T1, EphA2-Fc (UniProt P29317 25-534, limits assumed); experiment: SPR (BIAcore 3000), EphA2-Fc immobilized on CM5 chip, soluble IgG, 1:1 Langmuir fit; below the limit of detection
T1 construct: Amine-coupled to a CM5 chip; not shown: Fc part
Protocol: (§1) The interaction of soluble 12G3, 4C10, 12G3/Mut and 4C10/Mut with immobilized EphA2-Fc was monitored by surface plasmon resonance detection using a BIAcore 3000 instrument (Pharmacia Biosensor, Uppsala, Sweden). EphA2-Fc was coupled to the dextran matrix of a CM5 sensor chip (Pharmacia Biosensor) using an Amine Coupling Kit as described (Johnsson et al. supra) at a surface density of 162 RU. IgGs were diluted in 0.01 M HEPES pH 7.4 containing 0.15 M NaCl, 3 mM EDTA and 0.005% P20. All subsequent dilutions were made in the same buffer. All binding experiments were performed at 25° C. with IgG concentrations typically ranging from 100 nM to 0.2 nM at a flow rate of 75 μL/min; data were collected for approximately 20 min and one 1-min pulse of 1M NaCl, 50 mM NaOH was used to regenerate the surfaces. IgGs were also flowed over an uncoated cell and the sensorgrams from these blank runs subtracted from those obtained with EphA2-Fc-coupled chips. Data were fitted to a 1:1 Langmuir binding model. This algorithm calculates both the kₒₙ and the koff, from which the apparent equilibrium dissociation constant, KD, is deduced as the ratio of the two rate constants (koff/kₒₙ).

[2] = target: T1, EphA2-Fc; experiment: SPR (BIAcore 3000), EphA2-Fc immobilized on CM5 chip, soluble IgG, 1:1 Langmuir fit
Protocol: as §1

T1 sequence (P29317 25-534 limits assumed): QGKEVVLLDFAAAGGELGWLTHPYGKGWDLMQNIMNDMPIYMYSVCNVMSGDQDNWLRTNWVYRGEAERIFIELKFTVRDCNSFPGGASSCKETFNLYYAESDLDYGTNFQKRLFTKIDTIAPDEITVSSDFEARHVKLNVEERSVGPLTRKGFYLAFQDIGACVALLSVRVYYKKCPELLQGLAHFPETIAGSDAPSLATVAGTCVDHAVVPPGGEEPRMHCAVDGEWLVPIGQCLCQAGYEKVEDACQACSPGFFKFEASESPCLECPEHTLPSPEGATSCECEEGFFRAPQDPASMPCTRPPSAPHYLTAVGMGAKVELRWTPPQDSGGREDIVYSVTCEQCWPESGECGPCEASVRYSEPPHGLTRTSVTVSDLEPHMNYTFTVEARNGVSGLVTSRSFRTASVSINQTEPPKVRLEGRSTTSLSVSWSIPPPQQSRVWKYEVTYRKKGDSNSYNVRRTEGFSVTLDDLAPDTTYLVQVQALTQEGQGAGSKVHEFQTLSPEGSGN

B1: 12G3/M, heavy chain modified 12G3 (S60A/A61D, Kabat) (antibody, human IgG1, V domains shown)
VH: QMQLVQSGPEVKKPGTSVKVSCKASGFTFDDYSMNWVRQARGQRLEWIGFIRNKANDYTTEYADSVKGRVTITRDMSTSTAYMELSSLRSEDTAVYYCARYPRHHAMDSWGQGTSVTVSS
VL: DIQMTQSPSSLSASVGDRVTITCRASQSISNNLHWYQQKPGKAPKLLIKYAFQSISGVPSRFSGSGSGTDFTFTISSLQPEDFATYYCQQANSWPLTFGGGTKVEIK
notes: The light chain is unaltered; Human IgG1 / kappa; also called 12G3/Mut
For B1, the Kd [1] was < 27 pM, the koff [1] was < 5e-06 s⁻¹ and the kon [2] was 187000 M⁻¹ s⁻¹.

B2: 4C10 humanized anti-EphA2 monoclonal antibody (antibody, human IgG1, V domains shown)
VH: QMQLVQSGPEVKKPGTSVKVSCKASGFTFDDYSMTWVRQARGQRLEWIGFIRNKANAYTTEYSASVKGRVTITRDMSTSTAYMELSSLRSEDTAVYYCARYPRHHAMDSWGQGTSVTVSS
VL: DIQMTQSPSSLSASVGDRVTITCRASQSISNNLHWYQQKPGKAPKLLIKYAFQSISGVPSRFSGSGSGTDFTFTISSLQPEDFATYYCQQSNSWPLTFGGGTKVEIK
notes: Expressed in HEK 293 cells as soluble human IgG1 (human gamma 1 heavy chain, human kappa light chain)
With B2 the Kd [2] was 95 pM, the koff [2] was 9.75e-06 s⁻¹ and the kon [2] was 102000 M⁻¹ s⁻¹.

B3: 12G3 humanized anti-EphA2 monoclonal antibody (antibody, human IgG1, V domains shown)
VH: QMQLVQSGPEVKKPGTSVKVSCKASGFTFDDYSMNWVRQARGQRLEWIGFIRNKANDYTTEYSASVKGRVTITRDMSTSTAYMELSSLRSEDTAVYYCARYPRHHAMDSWGQGTSVTVSS
VL: DIQMTQSPSSLSASVGDRVTITCRASQSISNNLHWYQQKPGKAPKLLIKYAFQSISGVPSRFSGSGSGTDFTFTISSLQPEDFATYYCQQANSWPLTFGGGTKVEIK
notes: Expressed as soluble human IgG1 (human gamma 1, human kappa)
Binder B3 has a Kd [2] of 34 pM, a koff [2] of 8.49e-06 s⁻¹ and a kon [2] of 246000 M⁻¹ s⁻¹.

B4: 4C10/M, heavy chain modified 4C10 (S60A/A61D, Kabat) (antibody, human IgG1, V domains shown)
VH: QMQLVQSGPEVKKPGTSVKVSCKASGFTFDDYSMTWVRQARGQRLEWIGFIRNKANAYTTEYADSVKGRVTITRDMSTSTAYMELSSLRSEDTAVYYCARYPRHHAMDSWGQGTSVTVSS
VL: DIQMTQSPSSLSASVGDRVTITCRASQSISNNLHWYQQKPGKAPKLLIKYAFQSISGVPSRFSGSGSGTDFTFTISSLQPEDFATYYCQQSNSWPLTFGGGTKVEIK
notes: The light chain is unaltered; Human IgG1 / kappa; also called 4C10/Mut
B4 gave a Kd [2] of 93 pM, a koff [2] of 5.96e-06 s⁻¹ and a kon [2] of 64100 M⁻¹ s⁻¹.
